Experimental data: the RNAGym collection of RNA variant scans (doi:10.7554/elife.80360)

B1: HDV Ribozyme (parent)
chain: GGCCGGCAUGGUCCCAGCCUCCUCGCUGGCGCCGGCUGGGCAACAUUCCGAGGGGACCGUCCCCUCGGUAAUGGCGAAUGGGACCCA

Variants of: B1
Assay: self-cleavage, relative activity (ratio to wild type); higher = more cleavage; co-transcriptional

In order of falling self-cleavage:
1. GGCCGGCAUGGUCCCAGCCUCCUAGCUGGCGCCGGCUGGGCAACAUUCCGAGGGUACCGUCCCCUCGGUAAUGGCGAAUGGGACCCA [C24A G55U]  0.908
2. GGCCGGCAUGGUCCCAGCCUCCUAGCUGGCGCCGGCUGGGCAACAUUCCGAGUGGACCGUCCCCUCGGUAAUGGCGAAUGGGACCCA [C24A G53U]  0.858
3. GGCCGGCAUGGUCCCAGCCUCCUAGCUGGCGCCGGCUGGGCAACAUUCCCAGGGGACCGUCCCCUCGGUAAUGGCGAAUGGGACCCA [C24A G50C]  0.855
4. GGCCGGCAUGGUCCCAGCCUCCUAGCUGGCGCCGGCUGGGCAACAUUCCGAGGGGACCCUCCCCUCGGUAAUGGCGAAUGGGACCCA [C24A G59C]  0.8
5. GGCCGGCAUGGUCCCAGCCUCCUAGCUGGCGCCGGCUGGGCAACAUUCGGAGGGGACCGUCCCCUCGGUAAUGGCGAAUGGGACCCA [C24A C49G]  0.787
6. GGCCGGCAUGGUCCCAGCCUCCUAGCUGGCGCCGGCUGGGCAACAUUCCGAUGGGACCGUCCCCUCGGUAAUGGCGAAUGGGACCCA [C24A G52U]  0.769
7. GGCCGGCAUGGUCCCAGCCUCCUAGCUGGCGCCGGCUGGGCAACAUUCCGAGGGGACCGUCCCCUAGGUAAUGGCGAAUGGGACCCA [C24A C66A]  0.764
8. GGCCGGCAUGGUCCCAGCCUCCUAGCUGGCGCCGGCUGGGCAACAUUCCGAGGGGACCGUCCCCUCGGUAAUGGCGAAUGGGACCCU [C24A A87U]  0.749
9. GGCCGGCAUGGUCCCAGCCUCCUAGAUGGCGCCGGCUGGGCAACAUUCCGAGGGGACCGUCCCCUCGGUAAUGGCGAAUGGGACCCA [C24A C26A]  0.743
10. GGCCGGCAUGGUCCCAGCCUCCUAGCUGGCGCCGGCUGGGCAACAUUCCGAGGGGAUCGUCCCCUCGGUAAUGGCGAAUGGGACCCA [C24A C57U]  0.727
11. GGCCGGCAUGGUCCCAGCCUCCUAGCUGGCGCCGGCUGGGCAACAUUACGAGGGGACCGUCCCCUCGGUAAUGGCGAAUGGGACCCA [C24A C48A]  0.717
12. GGCCGGCAUGGUCCCAGCCUCCUAGCUGGCGCCGGCUGGGCAACAUUCCGAGGGGACCGUCCCCUCGGUAAUGGCGAAUGGGACCCG [C24A A87G]  0.7
13. GGCCGGCAUGGUCCCAGCCUCCUAGCUGGCGCCGGCUGGGCAACAUUCCGGGGGGACCGUCCCCUCGGUAAUGGCGAAUGGGACCCA [C24A A51G]  0.665
14. GGCCGGCAUGGUCCCAGCCUCCUAGCUGGCGCCGGCUGGGCAACAUUCCGAGGGGACCGUCCCCUCGGUAAUGGCGAAUGGGACCUA [C24A C86U]  0.633
15. GGCCGGCAUGGUCCCAGCCUCCUAGCUGGCGCCGGCUGGGCAACAUUCCGAGGGGACCGUCCCCUCGGUAAUGGCGAAUGGGAUCCA [C24A C84U]  0.587
16. GGCCGGCAUGGUCCCAGCCUCCUAGCUGGCGCCGGCUGGGCAACAUUCCGAGGGGACCGUCGCCUCGGUAAUGGCGAAUGGGACCCA [C24A C62G]  0.554
17. GGCCGGCAUGGUCCCAGCCUCCUAGCUGGCGCCGGCUGGGCAACAUUCCGAGGGGACCGUCCCCUCGGUAAUGGCGAAUGGGUCCCA [C24A A83U]  0.415
18. GGCCGGCAUGGUCCCAGCCUCCUAGCUGGCGCCGGCUGGUCAACAUUCCGAGGGGACCGUCCCCUCGGUAAUGGCGAAUGGGACCCA [C24A G40U]  0.41
19. GGCCGGCAUGGUCCCAGCCUCCUAUCUGGCGCCGGCUGGGCAACAUUCCGAGGGGACCGUCCCCUCGGUAAUGGCGAAUGGGACCCA [C24A G25U]  0.277
20. GGCCGGCAUGGUCCCAGCCUCCUAGCUGGCGCCGACUGGGCAACAUUCCGAGGGGACCGUCCCCUCGGUAAUGGCGAAUGGGACCCA [C24A G35A]  0.212
21. GGCCGGCAUGGUCCCAGCCUCCUAGCUAGCGCCGGCUGGGCAACAUUCCGAGGGGACCGUCCCCUCGGUAAUGGCGAAUGGGACCCA [C24A G28A]  0.208
22. GGCCGGCAUGGUCCCAGCCUCCUACCUGGCGCCGGCUGGGCAACAUUCCGAGGGGACCGUCCCCUCGGUAAUGGCGAAUGGGACCCA [C24A G25C]  0.208
23. GGCCGGCAUGGUCCCAGCCUCCUAGCUGGCGCCGGCUGGGCAACAUUCCGAGGGGACCGUCCCCUCGGUAAUGGCGAAUGGGCCCCA [C24A A83C]  0.192
24. GGCCGGCAUGGUCCCAGCCUCCUAGCUGGCGCCGGCUGGGCAACCUUCCGAGGGGACCGUCCCCUCGGUAAUGGCGAAUGGGACCCA [C24A A45C]  0.19
25. GGCCGGCAUGGUCCCAGCCUCCUAGCUGGCGCCGGCUGGGCAACAUUCCGAGGGGACCGUCCCCUCGGUAAUGGCGCAUGGGACCCA [C24A A77C]  0.185
26. GGCCGGCAUGGUCCCAGCCUCCUAGCUGGCGCCGGCUGGGCAACAUUCCGAGGGGACCGUCCCCUCGGUAAUGGUGAAUGGGACCCA [C24A C75U]  0.169
27. GGCCGGCAUGGUCCCAGCCUCCUAGCUGCCGCCGGCUGGGCAACAUUCCGAGGGGACCGUCCCCUCGGUAAUGGCGAAUGGGACCCA [C24A G29C]  0.136
28. GGCCGGCAUGGUCCCAGCCUCCUAGCUGGCGCCGGCUGGGCAACAUUCCGAGGGGACCGUCCCCUCGGUAAUGGCGAUUGGGACCCA [C24A A78U]  0.0923
29. GGCCGGCAUGGUCCCAGCCUCCUAGCUGGCGCCGGCUGGGCAACAUUCCGAGGGGACCGUCCCCUCGGUAAUGGGGAAUGGGACCCA [C24A C75G]  0.0898
30. GGCCGGCAUGGUCCCAGCCUCCUAGCUGGCGCCUGCUGGGCAACAUUCCGAGGGGACCGUCCCCUCGGUAAUGGCGAAUGGGACCCA [C24A G34U]  0.0831
31. GGCCGGCAUGGUCCCAGCCUCCUAGCUGGCGCCGGCUUGGCAACAUUCCGAGGGGACCGUCCCCUCGGUAAUGGCGAAUGGGACCCA [C24A G38U]  0.0791
32. GGCCGGCAUGGUCCCAGCCUCCUAGCUUGCGCCGGCUGGGCAACAUUCCGAGGGGACCGUCCCCUCGGUAAUGGCGAAUGGGACCCA [C24A G28U]  0.0386
